The experiment concerns the target T1, oligomeric β-amyloid (1-42) (UniProt P05067 672-713).
T1 construct: the cut product β-amyloid (1-42) of the amyloid precursor protein; Oligomer; The methods of the direct BLI, reporter and BiFc assays name no label for oAβ; also called oAβ; Oligomer Aβ; source: bought: AnaSpec (lyophilized powder); HFIP-treated, dissolved in DMSO, oligomerised in DPBS at 37 °C overnight
Put plainly: BLI; protein A sensor-captured Fc fusion proteins, oAβ at multiple concentrations, 1:1 binding model, KD calculated as kdis/kon. Conditions: both partners purified.

What is called Kd is the constant that tells how readily two partners part at equilibrium. Usually koff stands for the rate constant with which the complex falls apart.

B1: LILRB2-Fc fusion protein (extracellular domain of LILRB2 fused to human IgG1 Fc) (Fc fusion, UniProt Q8N423 22-460, looked up)
chain: QTGTIPKPTLWAEPDSVITQGSPVTLSCQGSLEAQEYRLYREKKSASWITRIRPELVKNGQFHIPSITWEHTGRYGCQYYSRARWSELSDPLVLVMTGAYPKPTLSAQPSPVVTSGGRVTLQCESQVAFGGFILCKEGEDEHPQCLNSQPHARGSSRAIFSVGPVSPNRRWSHRCYGYDLNSPYVWSSPSDLLELLVPGVSKKPSLSVQPGPVMAPGESLTLQCVSDVGYDRFVLYKEGERDLRQLPGRQPQAGLSQANFTLGPVSRSYGGQYRCYGAHNLSSECSAPSDPLDILITGQIRGTPFISVQPGPTVASGENVTLLCQSWRQFHTFLLTKAGAADAPLRLRSIHEYPKYQAEFPMSPVTSAHAGTYRCYGSLNSDPYLLSHPSEPLELVVSGPSMGSSPPPTGPISTPGPEDQPLTPTGSDPQSGLGRHLGV
notes: leukocyte immunoglobulin-like receptor subfamily B member 2 (LILRB2), extracellular domain (ECD) with four Ig-like domains; source: Expi 293 cells, purified (protein A agarose)
For B1, the Kd was 69.3 nM and the dissociation rate constant (koff) was 0.000593 s⁻¹.

B2: TREM2-Fc fusion protein (extracellular domain of TREM2 fused to human IgG1 Fc) (Fc fusion, UniProt Q9NZC2 19-174, looked up)
chain: HNTTVFQGVAGQSLQVSCPYDSMKHWGRRKAWCRQLGEKGPCQRVVSTHNLWLLSFLRRWNGSTAITDDTLGGTLTITLRNLQPHDAGLYQCQSLHGSEADTLRKVLVEVLADPLDHRDAGDLWFPGESESFEDAHVEHSISRSLLEGEIPFPPTS
notes: triggering receptor expressed on myeloid cells 2 (TREM2), extracellular domain (ECD); source: Expi 293 cells, purified (protein A agarose)
On to B2, for which the Kd was 12.6 nM and the koff was 0.000123 s⁻¹.

(Values after PMC9206387, “LILRB2-mediated TREM2 signaling inhibition suppresses microglia functions” (Molecular Neurodegeneration, 2022).)
